Test results as given in doi:10.1101/2021.12.06.470909, “Ubiquitination regulates cytoophidium assembly in Schizosaccharomyces pombe” (bioRxiv, 2021).

Molecular target: T1, ubiquitin (S. pombe (endogenous in S. pombe), UniProt P0CG72 1-76)
T1 construct: ubiquitin of S. pombe, the cut product of the ubiquitin precursors; precipitated with an anti-ubiquitin polyclonal antibody; The ubiquitin may be free, in chains or covalently conjugated; source: endogenous, S. pombe lysate
Assay: co-IP; S. pombe extract (Buffer A: 50mM Hepes-KOH pH 7.5, 5mM MgAc, 100mM KAc, 0.1% NP40, 1mM DTT, 0.5mg/ml BSA) precipitated with anti-ubiquitin rabbit polyclonal antibody overnight at 4°C, then A/G magnetic beads; blot with anti-HA (Cts1-flag-3HA, with MG132) or anti-GFP (Cts1-YFP strains; also in mug30Δ and ubr11Δ backgrounds); IP signal normalised over input
Details: partners not purified

T1 sequence (P0CG72 1-76): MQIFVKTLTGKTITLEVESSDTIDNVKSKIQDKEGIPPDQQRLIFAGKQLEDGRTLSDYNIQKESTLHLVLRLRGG

fold reduction of the co-IP signal against Cts1-YFP: 6.2 fold
B1: Cts1-YFP K430R (enzyme, S. pombe, UniProt O42644 1-600, looked up)
chain: MKYVLVSGGVISGIGKGVIASSTGLLLKTLGLKVTSIKIDPYMNIDAGTMSPLEHGEVFVLNDGGEVDLDLGNYERYLNVTLTHDNNITTGKVYSNVIQKERRGDYLGKTVQIVPHVTNEIQDWVERVARIPVDQSGEEPDVCIVELGGTVGDIESAAFVEAMRQFQFRVGHENFVSIHVSLVPVINGEQKTKPTQQAIRDLRSLGITPDLIACRCKQPLEKSVIDKISLFCHVGPEQVLAVHDVSSTYHVPQLLEDKLLEYLKIRFALDKISVSRELALAGENMWSSWKHLTQGYDHLFKKVTIVLVGKYTHLQDSYISVIKALEHSAMRCGRKLDLQWVEASHLEASTNTSDPLSYHKAWHLVCSANGILVPGGFGSRGVEGMIAAAKWARENNTPYLGICLGMQVAVIEFARSVCGIEGAFSEEFDRECENNVVVYMPEIDKDKLGGTMRLGLRPTFFQPNSEWSKLRKLHKMVDEVLERHRHRYEINPAFVSRLEQGGISFIGKDERGERMEIIEKRDHPYFVGVQYHPEYLSKPLKPSPPIFGLVAASAGLLDEFIQSGEEVEWSNFSHFNAESALADMNDSVEVTEEATVVTIS
notes: CTP synthase (Cts1) of Schizosaccharomyces pombe with the point mutation K430R, fused to YFP; source: S. pombe K430R strain in a Cts1-YFP background, in cell lysate
